B1: EstCE1: recombinant enzyme having carboxyl esterase activity, amino acid sequence SEQ ID NO: 4, family VIII of bacterial lipolytic enzymes (protein)
chain: MSIADQSLAKRVQGVSQQAIDEGRIVGSVVLIARHGRVIYANASGYADREQKKPMVRETQFRLSSVSKPYITLAAMRMIEQQKLGLDDTVSRWLPWFTPALADGVRPPIKIRHLLSHTAGLDYRLSQPAEGPYHRLGIKDGMELSSLTLEQNLRLLAQADLLAEPGSEFRYSLAIDVLGAVLEQVAGEPLPQVFNHWVAQPLGLRNTGFYTTDVDNLATAYHDTAAEPEPIRDGMLLTLPEGFGFEIELAPSRALDAQAYPSGGAGMVGDADDVLQLVETLRTGKEGILQPATAALMRQAHVGSHAETQGPGWGFGFGGAVLEDAQLAATPQHNGTLQWGGVYGHSWFYDPQAAISVVALTNTAFEGMSGRYPLQIRDAVYGTNEPTR
modifications: metagenomic sequence
B2: EstA3: recombinant enzyme having carboxyl esterase activity, amino acid sequence SEQ ID NO: 2, family VIII of bacterial lipolytic enzymes (protein)
chain: MSAEELGFLPDRLARISDHIQTNYLDNGKLPFASLLIGRGDDIALQWSSGVADDAIFRIASMTKPVTSVAFMQLVEQGKVALTDPVAKYIPEFAKLGVFVAGGGNIPFVSRPPTMPMRIVDVLRHTTGFTYSFQERSNIDAAYRKTDVESWTRSTSQSFIDTLAEIPLEFDPGTQWNYSVSTDVLGILIERISGQSLPDYFRDHIFAPLGMVDTCFTVPADKAARIPQCFAFDPATKMKLFDEAGASSLWTKGWSFNSGGGGLASSVADYHRFCRMLLNGGALDGIQIISPKTLELMTANHLPGGQDLTQMSKSLFSEAEMAGIGFGLGFATTIDSVATLTPCSTGDFYWGGMYSTAFFVDPVEDIIMIFMTQLMPSSTYPVRREIKTMIYSALAA
modifications: metagenomic sequence

Columns and labels:
[1] = Substrate specificity on pNP-substrates with importance for pharmaceutical products; format: biochemical; conditions: 30 minute, 40° C., pH 7.5
Method: The substrate range of the two enzymes was determined using pNP esters of the following: benzoate, 2-(4-isobutylphenyl)propanoate (Ibuprofen), 2-phenylpropanoate, 3-phenylbutanoate, cyclohexanoate, 2-(3-benzoylphenyl)propanoate, 2-naphthoate, 1-naphthoate, adamantanoate and 2-(6-methoxynaphthalene-2-yl)propanoate (Naproxen). Activity was determined at 410 nm after 30 minute incubation at 40° C. The reaction mixture was 950 μl buffer (100 mM Tris, pH 7.5), 50 μl substrate (5 mg/ml in DMSO) and 1 μg enzyme.

[2] = Enzyme activity fingerprinting with substrate cocktails; format: biochemical; conditions: substrate 7-(3-octylcarboxy-(3-hydroxy-3-methyl-butyloxy))-coumarine; fingerprint analysis, 15 μM, 30 min
Method: The enzyme activity fingerprinting used 10 substrates and was carried out as described previously. The assay conditions were 75% PBS buffer at pH 7.4, 25% DMSO and 0.0025% SDS. Each substrate was present in the cocktail at 15 μM, the total concentration of the substrate cocktail was 150 μM. EstA3 was added at a concentration of 0.75 mg/L and EstCE1 at 0.2075 mg/L. The reaction time was 30 min. The chemical background was measured by recording the products observed under the same assay conditions after a 5 day incubation in the absence of the enzyme. The blank value was taken from the reaction after 30 min incubation in the absence of the enzyme.

[3] = pNP-ester of 2-(3-benzoylphenyl) propanoate
[4] = pNP-ester of 2-(4-isobutylphenyl) propanoate (Ibuprofen)
[5] = pNP-ester of 2-(6-methoxy-naphthalen-2-yl) propanoate (Naproxen)
[6] = pNP-ester of 2-phenylpropanoate

Molecule	specific activity ([1]; pNP-ester of 1-naphthoate)	specific activity [1, 3]	specific activity [1, 4]	specific activity [1, 5]	specific activity ([1]; pNP-ester of 2-naphthoate)	specific activity [1, 6]	specific activity ([1]; pNP-ester of 3-phenylbutanoate)	specific activity ([1]; pNP-ester of adamantanoate)	specific activity ([1]; pNP-ester of benzoate)	specific activity ([1]; pNP-ester of cyclohexanoate)	conversion of secondary ester, in words [2]
B1	0 U/mg	0.8 U/mg	0 U/mg	0 U/mg	0 U/mg	0 U/mg	1.0 U/mg	0 U/mg	12.1 U/mg	16.8 U/mg	–
B2	0 U/mg	26.7 U/mg	7.2 U/mg	26.7 U/mg	0 U/mg	21.0 U/mg	31.6 U/mg	0 U/mg	9.4 U/mg	50.0 U/mg	able to convert

From patent publication US8956838B2, “Carboxyl esterase polypeptides” (B.R.A.I.N., priority 2006, dated 2015)
